According to patent US20170258870A1 (NORTHWESTERN UNIVERSITY, published 2017):
The star is where a group is joined. Biotin = O=C1N[C@H]2[C@H](CS[C@H]2CCCCC(=O)*)N1; Ttds = NCCCOCCOCCOCCCNC(=O)CCC(=O)*

How the values were obtained:
[1] = target: T1, recombinant human α-mannosidase (LAMAN) (human, UniProt O00754 50-1011, limits assumed); experiment: pulldown with biotinylated peptide on streptavidin beads, neutral pH, coomassie
T1 sequence (looked up): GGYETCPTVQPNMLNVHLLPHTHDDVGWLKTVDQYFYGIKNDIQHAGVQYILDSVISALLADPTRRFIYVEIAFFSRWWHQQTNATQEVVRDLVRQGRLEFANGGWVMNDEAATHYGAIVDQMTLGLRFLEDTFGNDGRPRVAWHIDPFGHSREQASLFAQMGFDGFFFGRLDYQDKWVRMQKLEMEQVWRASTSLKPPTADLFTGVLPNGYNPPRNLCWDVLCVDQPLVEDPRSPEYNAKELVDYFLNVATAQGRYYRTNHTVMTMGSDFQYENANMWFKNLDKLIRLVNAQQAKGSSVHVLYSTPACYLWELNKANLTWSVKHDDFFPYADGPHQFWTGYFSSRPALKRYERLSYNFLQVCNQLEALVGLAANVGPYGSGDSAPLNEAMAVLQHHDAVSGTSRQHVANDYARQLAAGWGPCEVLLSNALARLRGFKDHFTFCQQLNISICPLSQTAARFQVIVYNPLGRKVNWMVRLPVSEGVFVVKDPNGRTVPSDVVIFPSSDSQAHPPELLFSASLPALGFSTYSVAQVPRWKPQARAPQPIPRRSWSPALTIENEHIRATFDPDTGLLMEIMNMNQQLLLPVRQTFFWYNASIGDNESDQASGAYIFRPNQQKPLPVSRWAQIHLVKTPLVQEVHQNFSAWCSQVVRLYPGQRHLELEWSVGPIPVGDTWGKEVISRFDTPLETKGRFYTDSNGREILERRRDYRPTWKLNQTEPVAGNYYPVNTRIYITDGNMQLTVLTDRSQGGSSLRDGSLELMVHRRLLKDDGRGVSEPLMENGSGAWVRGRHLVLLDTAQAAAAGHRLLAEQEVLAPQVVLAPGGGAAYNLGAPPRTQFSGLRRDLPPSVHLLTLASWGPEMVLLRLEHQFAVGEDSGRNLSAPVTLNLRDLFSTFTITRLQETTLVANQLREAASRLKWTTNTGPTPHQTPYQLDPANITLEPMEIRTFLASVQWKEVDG
Procedure: (§1) The total incubation volume was 250 μl (50 mM NaPhosphate buffer, 150 mM NaCl, pH7). ‘High Capacity Streptavidin Beads’ (Thermo Fisher Scientific, Waltham, USA) were blocked with 1% BSA solution and equilibrated with the NaPhosphate buffer. For each pulldown 50 μl of beads were utilized and incubated with 200 μl enzyme/peptide mixture for 30 min. at room temperature. The remaining 50 μl of the enzyme/peptide samples were prepared for SDS-PAGE (INPUT fraction). After incubation of the beads with the enzyme/peptide mixture the samples were centrifuged for 1 min. at 1,500×g at 4° C. The supernatant was removed and stored at 4° C. (UNBOUND fraction). Subsequently, the beads were washed three times with NaPhosphate buffer followed by centrifugation at 4,000 rpm at room temperature. […] After destaining the gels were scanned.

[2] = target: bovine serum albumin (BSA) (bovine, UniProt P02769 25-607); experiment: as above
Chain of bovine serum albumin (BSA) (P02769 25-607 limits assumed): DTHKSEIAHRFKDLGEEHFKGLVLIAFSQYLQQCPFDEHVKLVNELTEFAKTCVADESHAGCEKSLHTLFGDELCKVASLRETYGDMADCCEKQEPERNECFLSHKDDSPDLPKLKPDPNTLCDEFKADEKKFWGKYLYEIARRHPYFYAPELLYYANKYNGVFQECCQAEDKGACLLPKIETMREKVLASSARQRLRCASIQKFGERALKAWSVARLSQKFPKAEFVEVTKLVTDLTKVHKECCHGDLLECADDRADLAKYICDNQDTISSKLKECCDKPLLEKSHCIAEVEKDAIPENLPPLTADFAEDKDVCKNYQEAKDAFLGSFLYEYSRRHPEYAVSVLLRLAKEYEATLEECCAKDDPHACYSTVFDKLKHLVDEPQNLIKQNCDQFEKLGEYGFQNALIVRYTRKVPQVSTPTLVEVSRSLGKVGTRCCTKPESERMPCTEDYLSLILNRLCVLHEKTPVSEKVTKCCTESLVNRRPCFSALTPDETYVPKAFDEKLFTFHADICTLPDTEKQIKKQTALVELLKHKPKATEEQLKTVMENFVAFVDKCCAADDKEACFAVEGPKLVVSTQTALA
Procedure: as §1

B1: Helix 5 peptide (LIMP-2-derived, L152-E175) (peptide)
peptide: {Biotin-Ttds}-LREIIEAMLKAYQQKLFVTHTVDE-OH
notes: Synthetic peptide from jpt Peptide Technologies; also called wild-type helix 5 peptide; LIMP-2-derived helix 5 peptide
binding result [1]: no binding
binding result [2]: no binding
